Reference: patent publication US20240238445A1, “INHIBITORS AND USES THEREOF” (NEURACLE SCIENCE CO., LTD., priority 2021, published 2024)

Experiments:
[1] = target: binding of FAM19A5 protein to full-length ectodomain of LRRC4 protein (Homo sapiens, UniProt Q7Z5A7); assay: Competitive inhibition assay, plate coated with full-length ectodomain of LRRC4; conditions: FAM19A5 5 ng/mL; 100 nM/well coat
Description: As described in Example 3, there appeared to be much similarity in the binding domains of the different members of the LRRC4 family. […] Then, recombinant FAM19A5 protein (5 ng/mL) was added in combination with one of the following: (i) LRRC4B (484-576) protein fragment, (ii) LRRC4B (453-576, AA) protein fragment, and (iii) synthetic FB-20 peptide. The plates were incubated at 37° C., and then, the amount of FAM19A5 protein bound to the coated LRRC4, LRRC4B, or LRRC4C proteins was measured using anti-FAM19A5 (1-65) antibody.

[2] = target: binding of FAM19A5 protein to LRRC4B (amino acids 453-576)-hFc (Homo sapiens, UniProt Q7Z5A7); assay: Competitive inhibition assay, plate coated with LRRC4B (amino acids 453-576)-hFc, peptides at 20 nM
Source text: Next, to assess whether polypeptides comprising the binding domains of LRRC4 or LRRC4C proteins can have similar inhibitory effects on LRRC4B protein binding, the following synthetic peptides were constructed: (1) FBC4-23 (contains the binding domain of the LRRC4 protein, i.e., YSFFTTVTVETTE); and (2) FBC4C-23 (contains the binding domain of the LRRC4C protein, i.e., FSYFSTVTVETME). Then, the ability of the peptides to inhibit the binding of LRRC4 protein family members to FAM19A5 protein was assessed using a competitive inhibition assay. Briefly, plates were coated with 100 nM of either LRRC4B protein fragment #1 (amino acids 36-576 of SEQ ID NO: 2; SEQ ID NO: 5) or LRRC4B protein fragment #2 (amino acids 453-576 of SEQ ID NO: 2; SEQ ID NO: 7). Then, recombinant FAM19A5 protein (5 ng/ml for plates coated with LRRC4B fragment #1; and 1 ng/mL for plates coated with LRRC4B fragment #2) was added to the plates in combination with 20 nM of the FBC4-23, FBC4C-23, and FB-20 peptides. The plates were incubated at 37° C. and then, the amount of FAM19A5 protein bound to the coated LRRC4B protein fragments was assessed using HRP-conjugated anti-FAM19A5 (1-65) antibody.
Next, to determine the minimal sequence required to inhibit the interaction of FAM19A5 and members of the LRRC4 protein family, ten FB-20 peptide variants were constructed by serially deleting one or more amino acids from the N-terminus or C-terminus of the FB-20 peptide. Then, a competitive inhibition assay was used to assess the ability of the different FB-20 peptide variants to inhibit the interaction between FAM19A5 and LRRC4B protein. Again, plates were coated with 100 nM of either LRRC4B protein fragment #1 (amino acids 36-576 of SEQ ID NO: 2; SEQ ID NO: 5) or LRRC4B protein fragment #2 (amino acids 453-576 of SEQ ID NO: 2; SEQ ID NO: 7). Then, recombinant FAM19A5 protein (5 ng/ml for plates coated with LRRC4B fragment #1; and 1 ng/mL for plates coated with LRRC4B fragment #2) was added to the plates in combination with 20 nM of the different peptides described above. After incubating the plates at 37° C., the amount of FAM19A5 protein bound to the coated LRRC4B protein fragments was assessed using HRP-conjugated anti-FAM19A5 (1-65) antibody.
To identify the critical amino acid residues, multiple FB-20 peptide mutants were constructed, in which the individual residues of the core binding domain (i.e., YTYFTTVTVETLE; SEQ ID NO: 15) were substituted with alanine (A) or asparagine (N). Then, the ability of these FB-20 peptide mutants to inhibit the interaction between LRRC4B and FAM19A5 proteins was assessed, as described in Examples 3 and 4.

[3] = tested on: mouse primary hippocampal neurons; assay: Synaptic marker (SYP, PSD95) expression in mouse primary hippocampal neurons; type: cell-based; conditions: 6 or 60 nM
Description: Next, it is generally known that neurites that outgrow from other neurites are capable of differentiating into axons, forming presynapses. Other neurites remain minor neurites and differentiate into dendrites, forming postsynapses. Therefore, whether the LRRC4B (453-576) protein fragment can also affect pre- and post-synaptic formation was also assessed. Briefly, mouse primary hippocampal neurons were cultured in vitro with the LRRC4B (453-576) protein fragment (6 or 60 nM). Control cells were treated with either DMSO (“Veh”) or the mutant LRRC4B (453-576) protein fragment which is not capable of binding to FAM19A5 protein (comprises alanine substitutions at positions 488 and 489). Then, at days 3 and 6 post initial culture, the expression level of synaptophysin (SYP; a presynaptic marker) was assessed. At day 7 post initial culture, the expression level of postsynaptic density 95 (PSD95; a postsynaptic marker) was assessed.
Primary hippocampal neurons were prepared from postnatal pups (postnatal day 1) of C57BL/6 (Nara Biotech, Seoul, Korea) as previously described by Beaudoin et al., Nature protocols 7(9): 1741-1754 (2012), which is incorporated herein by reference in its entirety. Briefly, cortices were dissected in Hank's buffered salt solution (HBSS) (Invitrogen, Carlsbad, CA, USA) and digested with 2.5% trypsin for 15 min at 37° C. […]

binding of FAM19A5 protein to LRRC4B (amino acids 453-576)-hFc, sequence (Q7Z5A7 44-132): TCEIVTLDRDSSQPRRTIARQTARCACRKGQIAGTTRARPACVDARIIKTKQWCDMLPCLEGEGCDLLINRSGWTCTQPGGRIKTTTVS
binding of FAM19A5 protein to full-length ectodomain of LRRC4 protein, sequence (Q7Z5A7 44-132): as above

Molecule	inhibition of FAM19A5 binding to coated LRRC4 protein (in words) [1]	Inhibition rate (%) LRRC4B (amino acids 453-576)-hFc ([2]; Table 8, 20 nM peptide, FAM19A5 1 ng/mL) [%]	Inhibition rate (%) LRRC4B (amino acids 453-576)-hFc ([2]; Table 9, deletion variants, 20 nM peptide, FAM19A5 1 ng/mL) [%]	Inhibition rate (%) LRRC4B (amino acids 453-576)-hFc ([2]; Table 10, alanine/asparagine mutants) [%]	SYP and PSD95 expression [3]	number of puncta colabeled with SYP and PSD95 [3]
GYTYFTTVTVETLETQPGEE [FB-20]	able to inhibit FAM19A5 protein from binding	63.2	62.0	63.2	–	–
LRRC4B (453-576): LRRC4B ectodomain fragment, amino acids 453-576 of SEQ ID NO: 2; FLAG-tagged or hFc-fused (protein, FLAG tag or human Fc, FLAG-tagged or hFc-fused) VSAVDPVAAGGTGSGGGGPGGSGGVGGGSGGYTYFTTVTVETLETQPGEEALQPRGTEKEPPGPTTDGVWGGGRPGDAAGPASSSTTAPAPRSSRPTEKAFTVPITDVTENALKDLDDVMKTTK	–	–	–	–	increased both SYP and PSD95 expression	increased number of puncta that were colabeled with SYP and PSD95
